In the supplement of paper PMC10567573:
± gives the standard deviation.

Assay: protein stability index of a GFP-peptide fusion (GPS, HEK-293T) (PSI 1-6); higher = more stable
[1] = treatment: DMSO, c terminus: a fixed tail appended
[2] = treatment: MLN4924 1 uM, 8 h, c terminus: a fixed tail appended
[3] = treatment: DMSO, c terminus: native
[4] = treatment: MLN4924 1 uM, 8 h, c terminus: native
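Further: 24-mer peptide tiles fused after GFP, lentivirally expressed, FACS-sorted into six equal bins by GFP/DsRed ratio, decoded by Illumina sequencing, PSI is the read-weighted mean bin number.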

Sequence | protein stability index [1] | protein stability index [2] | protein stability index [3] | protein stability index [4]
VLNTQGQKTSGQHMIQGAGSLEKA [DLC1] | 4.19 ± 0.42 | 4.23 ± 0.33 | – | –
PHFLQGGPFPLPYTAPGGYLDVGS [TBX6] | 2.93 ± 0.56 | 2.76 ± 0.33 | – | –
TGQPLPQSIQQAMRYLRNHCLDQV [DLC1] | 2.36 ± 0.093 | 2.4 ± 0.22 | – | –
FLQALSLAVDKQFEERKKLAAYI [TRIP13] | – | – | 3.18 ± 0.71 | 2.54 ± 0.51
FQEPDSPLPPARSPTEPGPERRRS [WEE1] | 5.32 ± 0.35 | 5.31 ± 0.06 | – | –
LPLSHIAAQMMDIWVPIKIGALTY [ACSBG2] | 2.79 ± 0.76 | 2.73 ± 0.82 | – | –
DFGSNCRFSHMSERDLQELSIQVE [ZMAT5] | 3.05 ± 0.49 | 2.91 ± 0.28 | – | –
LLQKYNMQFLIRSHECKPEGYEFC [PPEF2] | 2.5 ± 0.84 | 2.27 ± 0.49 | – | –
SNHSAQDSAVENLLLLSKAKLVPS [IKZF1] | 3.81 ± 0.22 | 3.95 ± 0.32 | – | –
KAASLARNLAKRRRTYLGGAAGRS [RSPH3] | 3.09 ± 0.34 | 3.56 ± 0.45 | – | –
STSDSDLTCDSSTSSSDDDEEVSG [C18orf25] | 5.22 ± 0.21 | 5.28 ± 0.13 | – | –
FYNTEDIKDWEDRFYLLLFSFLGL [PTGFR] | 2.41 ± 0.7 | 2.1 ± 0.47 | – | –
EFIMPDSAVVGDVLVLTKPLGTQV [SEPHS2] | 2.3 ± 0.31 | 2.54 ± 0.32 | – | –
QVEGLTVQYLGQAPELLGGAEPGT [ADAMTS4] | 4.53 ± 0.51 | 4.87 ± 0.4 | – | –
VPLQLSAHWQCGATLTQVSVEYGY [FCHO1] | 2.76 ± 0.76 | 2.6 ± 0.67 | – | –
RDTFYKEQLERIERKNAEMYKLSS [CHCHD6] | 3.5 ± 0.12 | 3.79 ± 0.43 | – | –
YFFPVIFSKASDSLQLVFGIELME [MAGEA6] | 3 ± 0.29 | 3.02 ± 0.54 | – | –
PHLMQEHMGTNVIVANTMPTHLSN [HNF4A] | 3.83 ± 0.19 | 3.97 ± 0.24 | – | –
GFKRDYYLIRVDGKGSIKELFPTG [VPS39] | 2.06 ± 0.29 | 2.25 ± 0.36 | – | –
LSVSNNQEPDFIDDIEEKTPISNE [KMT2E] | 4.69 ± 0.37 | 4.75 ± 0.21 | – | –
AKQTKRMLDMKVNPIQGLASKWDY [COX4I1] | 2.93 ± 0.35 | 2.72 ± 0.34 | – | –
LCMDWCKDKRRIVSSSQDGKVIVW [GNB5] | 2.17 ± 0.14 | 2.33 ± 0.16 | – | –
PPLNPTSWWADLRALARNLIFGLI [SPNS1] | 4.75 ± 0.3 | 4.74 ± 0.32 | – | –

Sequence | protein stability index [1] | protein stability index [2] | protein stability index [3] | protein stability index [4]
GGTTGYIYSTDLHKLDLNTREWTQ [KLHDC10] | 2.44 ± 0.3 | 2.47 ± 0.43 | – | –
FQLNQDKMNFSTLRNIQGLFAPLK [POMP] | 2.54 ± 0.61 | 2.3 ± 0.4 | – | –
TAAPPPPPPSRPSVAVPPPPPNRM [WASL] | 4.82 ± 0.3 | 4.87 ± 0.2 | – | –
EPGYIDSEIGTSDQIVPEYQEDSD [TRIB1] | 5.69 ± 0.29 | 5.62 ± 0.19 | – | –
AVLAASSPYFHDQVLLKGMTSISL [ZBTB22] | 2.7 ± 0.32 | 2.47 ± 0.34 | – | –
GYGRAPGGLSLHDYKLLKPSLAVN [JUNB] | 2.92 ± 0.035 | 2.88 ± 0.73 | – | –
LFILSTLVVDYIDEGRLVLEFSLL [SOAT1] | 3.28 ± 0.57 | 2.88 ± 0.96 | – | –
AQTNPTPGSLGPWKITIYDQENFQ [CRYBA1] | 3.18 ± 0.41 | 3.3 ± 0.2 | – | –
PPPLTSPSHGSLSHSKAPSGSQMS [NCF4] | 4.83 ± 0.23 | 4.92 ± 0.35 | – | –
DVHDDVRLLSDATVEKDESHAGKV [FAM50A] | 5.52 ± 0.26 | 5.43 ± 0.23 | – | –
VCRDSVSRKGELTPLPETGYWRVR [TRIM39] | 2.55 ± 0.1 | 2.71 ± 0.57 | – | –
QLPPASRCVLVFEQVRFLMKSYSF [SOAT2] | 2.71 ± 0.67 | 1.95 ± 0.1 | – | –
PPGIPPLMPGVPPLMPGMPPVMPG [ZNF207] | 3.9 ± 0.23 | 4.07 ± 0.21 | – | –
DYKDRSVFGVPLTVNVQRTGQPLP [DLC1] | 3.62 ± 0.069 | 3.52 ± 0.17 | – | –
FFIQTVRPKDTVMCYRVRWEEAAP [MYORG] | 2.62 ± 0.73 | 2.56 ± 0.92 | – | –
NPVFQDSWDTESSGSDSGGSSSSS [FAM104A] | 5.37 ± 0.37 | 5.54 ± 0.26 | – | –
KRGPSSRSGGPPPKKSAPSAVARS [RBMY1A1] | 4.47 ± 0.12 | 4.78 ± 0.39 | – | –
FHPIKETVVEEPVDITPYLDQLDE [INTS3] | 3.98 ± 0.67 | 4.5 ± 0.44 | – | –
ISYSSMLGAVAGLALGPILRLYKH [MFSD9] | 2.58 ± 0.5 | 2.13 ± 0.25 | – | –
AQRVKEVLPHVPLGVIQRDLAKTG [AUP1] | 3.81 ± 0.42 | 3.85 ± 0.17 | – | –
IAEVCCTSIVYATEKKQTKVEFPE [KCTD10] | 3.42 ± 0.18 | 3.9 ± 0.39 | – | –
DRLEEQLPWLSLRALKFRERDALE [DNAAF3] | 3.4 ± 0.24 | 3.42 ± 0.19 | – | –
TQKFTDMVATANNRQTFVNSAIRF [CHIT1] | 2.85 ± 0.32 | 3.17 ± 0.33 | – | –

Sequence | protein stability index [1] | protein stability index [2] | protein stability index [3] | protein stability index [4]
LGPELIKESNANPIFMRKDTKMSF [DPCD] | 3.46 ± 0.084 | 3.43 ± 0.2 | – | –
HSTLEYKVKERLGTLKNPPKKKMK [LCOR] | 4.47 ± 0.26 | 4.73 ± 0.28 | – | –
DTERLDDFHLSIHSDMAAIVKAMA [DVL3] | 2.36 ± 0.2 | 2.49 ± 0.25 | – | –
LQSCQAEIIELRRTVNALEIELQA [KRT34] | 2.15 ± 0.45 | 2.11 ± 0.29 | – | –
GAPEDDEEDDGRGRGLLRWDSFSA [DENND6A] | 4.92 ± 0.078 | 4.98 ± 0.19 | – | –
KFENLCKLMKEILDKKVEKVTISN [HSP90AB1] | – | 2.75 ± 0.38 | – | –
DYSFLSLGVYSALREIAFTRQLHE [ATE1] | 2.99 ± 1.3 | 2.68 ± 0.94 | – | –
KEEKQRRRCKPKKPTRRDASPESP [GNAS] | 5.43 ± 0.18 | 5.47 ± 0.11 | – | –
LSTLLAPYQALRLWARGTWTQATG [SOAT2] | 2.4 ± 0.55 | 2.08 ± 0.55 | – | –
EIIKVTEQLIEAINNGDFEAYTKI [CAMK2D] | 2.47 ± 0.12 | 2.63 ± 0.29 | – | –
SRIKVLETSYQQREERLRRENEEL [FBF1] | 4.9 ± 0.18 | 5.07 ± 0.26 | – | –
KVRQLERDNAELENLIRERSQQQE [KRT33B] | 5.11 ± 0.3 | 5.13 ± 0.28 | – | –
FIIHGFIDKGDESWVTDMCKVGAS [PNLIPRP1] | 1.98 ± 0.25 | 2.65 ± 0.48 | – | –
SRLLIFPLYICCNFLYISPEKKN [GMCL1] | – | – | 2.97 ± 0.27 | 2.71 ± 0.43
PPLRLWRSVIEVPAVPEEILKRLL [DLC1] | 2.26 ± 0.46 | 2.43 ± 0.18 | – | –
RTIYHMFIAGLCVFIISTLAIDFI [SOAT2] | 3.14 ± 0.56 | 2.96 ± 0.67 | – | –
NYTSRVWEYSSSIQNSDNDLPVVQ [TRIM29] | 3.88 ± 0.26 | 4.02 ± 0.32 | – | –
AIGRVRVLEEQLVKAKEQIENYKK [FUT8] | 4.03 ± 0.16 | 4.28 ± 0.27 | – | –
QDLIEDLKLARKAYHDPMLKLSIM [NET1] | 2.33 ± 0.38 | 2.46 ± 0.26 | – | –
GAPLLPPPLPPPSPPGSGRGPGAS [ACBD3] | 5.23 ± 0.21 | 5.108 ± 0.027 | – | –
AIELQGHNDRVQALSYAQHTRQLI [WDFY2] | 3.1 ± 0.36 | 3.15 ± 0.41 | – | –
MMPLAEAGALAQGGGPSATEWACI [C6orf223] | 3.65 ± 0.34 | 3.52 ± 0.25 | – | –
MDGRMEAATRGGSHLQAAAQTPPR [SCNN1D] | 4.92 ± 0.39 | 4.93 ± 0.061 | – | –

Sequence | protein stability index [1] | protein stability index [2] | protein stability index [3] | protein stability index [4]
FWPHLKASNWSTTGFGQGQGYTIN [HDAC6] | 2.38 ± 0.32 | 2.64 ± 0.17 | – | –
IESERALISQCGKPVVNVSYRPAY [DUSP5] | 2.6 ± 0.5 | 2.82 ± 0.13 | – | –
SKPWHWPINYQGLRFSGVNDTDFR [POMT2] | 2.37 ± 0.17 | 2.52 ± 0.26 | – | –
LLFEYPESSSPARGIAIVSVLVIL [KCNA4] | 2.92 ± 0.2 | 3 ± 0.36 | – | –
SSHLQSSKAGPTRIFTSNTHSSVV [KLHL13] | 3.52 ± 0.22 | 3.52 ± 0.2 | – | –
SEEAVREVHRLIEGKAPIISGVTK [TPPP] | 4.44 ± 0.29 | 4.72 ± 0.14 | – | –
AAIDNGLAFPLKHPDSWRAYPFYW [PI4K2A] | 2.27 ± 0.18 | 2.26 ± 0.2 | – | –
KQIVSAVAHCHQSAIVLGDLKLRK [TRIB1] | 2.77 ± 0.18 | 2.72 ± 0.27 | – | –
TFLKAFPLMGETQERERVLTHFSR [PSD2] | 2.45 ± 0.21 | 2.63 ± 0.39 | – | –
CHLCNYACRRRDALTGHLRTHSVI [IKZF1] | 3.06 ± 0.26 | 3.15 ± 0.4 | – | –
RDPPRPGPSRPAEKPPRPEAKSAQ [GCH1] | 5.33 ± 0.35 | 5.1 ± 0.045 | – | –
FERIMKYERLARILLQEIPIRSIS [FBXO39] | 2.73 ± 0.39 | 2.35 ± 0.4 | – | –
RMLSKENKILQVFWEEHKASLGRE [CBY2] | 2.96 ± 0.39 | 3.35 ± 0.074 | – | –
VRILLEHYYKENDPSVRLKIASLL [INTS4] | 2.09 ± 0.33 | 2.41 ± 0.4 | – | –
MAPDPVAAETAAQGPTPRYFTWDE [FADS1] | 4.7 ± 0.17 | 4.83 ± 0.27 | – | –
MAFLDKRLQVKEHQHEEIQNVRNH [ATL3] | 3.84 ± 0.069 | 3.98 ± 0.23 | – | –
ESFTMDDMSWTCGNQDYKYRVSDV [VDR] | 3.08 ± 0.27 | 2.94 ± 0.13 | – | –
EPDALDDSLTSLQWLQEFSILNAK [FOXJ1] | 3.75 ± 0.21 | 3.65 ± 0.11 | – | –
YQELNYRSVEEAPVYSVPQLLSAM [SCNN1D] | 2.49 ± 0.34 | 2.69 ± 0.29 | – | –
LCAYGFFASLRPSEPFLTPYLLGP [SLC19A2] | 2.94 ± 0.32 | 2.9 ± 0.56 | – | –
